B1: Antibody C (antibody, V domains shown)
VH: QVQLVQSGAEVKKPGASVKVSCTASGFNIKDYYVHWVKQAPGQGLEWMGRIDPEDGDSKYAPKFQGKATMTADTSTSTVYMELSSLRSEDTAVYYCTTSYYVGTYGYWGQGTLVTVSS
VL: DIQMTQSPSSLSASVGDRVTITCSASSSVSYMLWFQQKPGKAPKLLIYSTSNLASGVPSRFSGSGSGTDFTLTISSLQPEDFATYYCQQRTFYPYTFGGGTKVEIKR
notes: also called 2H11-159-94
B2: 4D11 (Kirin/Astellas) anti-CD40 antibody (antibody, V domains shown)
VH: QLQLQESGPGLLKPSETLSLTCTVSGGSISSPGYYGGWIRQPPGKGLEWIGSIYKSGSTYHNPSLKSRVTISVDTSKNQFSLKLSSVTAADTAVYYCTRPVVRYFGWFDPWGQGTLVTVSS
VL: AIQLTQSPSSLSASVGDRVTITCRASQGISSALAWYQQKPGKAPKLLIYDASNLESGVPSRFSGSGSGTDFTLTISSLQPEDFATYYCQQFNSYPTFGQGTKVEIK
B3: Antibody A (antibody, human IgG1, kappa, L234A L235A, V domains shown)
VH: EVQLVESGGGLVKPGGSLRLSCAASGFTFSDYGMHWVRQAPGKGLEWVAYISSGNRIIYYADTVKGRFTISRDNAKNSLYLQMNSLRAEDTALYYCARQDGYRYAMDYWAQGTLVTVSS
VL: DIVMTQSPDSLAVSLGERATMSCKSSQSLLNSGNQKNYLTWHQQKPGQPPKLLIYWTSTRESGVPDRFSGSGSGTDFTLTISSLQAEDVAVYYCQNDYTYPLTFGGGTKVEIKR
notes: also called 20E2-12
B4: Antibody B (antibody, V domains shown)
VH: B3 VH with L93V, A110G
VL: B3 VL with R18K, A19V, M21I, S22N
notes: also called 10E2-1

Consider four molecules from patent US20160222124A1 (published 2016).

Numbering of substitutions follows the chain as printed.

For the first test, the target named is human CD40 (cellular) (human, UniProt P25942 21-277). The test is described as follows: cell-based or functional assay.
Chain of human CD40 (cellular) (P25942 21-277): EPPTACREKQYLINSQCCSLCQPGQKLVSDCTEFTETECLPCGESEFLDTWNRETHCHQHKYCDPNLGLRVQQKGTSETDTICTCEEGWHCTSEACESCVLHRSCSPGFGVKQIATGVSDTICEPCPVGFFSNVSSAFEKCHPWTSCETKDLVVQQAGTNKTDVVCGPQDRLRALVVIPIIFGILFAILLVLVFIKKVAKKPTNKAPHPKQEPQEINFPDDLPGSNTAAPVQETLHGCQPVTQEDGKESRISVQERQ
Take B1: the “B cell proliferation: Agonism (SI*)” value was less than 2 SI.
As to B2, the “B cell proliferation: Agonism (SI*)” value is less than 2 SI.
Still for that read-out and setting: next, B3: less than 2 SI; B4: less than 2 SI.

A further test concerns the target T1, cynomolgus monkey CD40 (cynomolgus monkey, UniProt G7PG38 21-278).
T1 construct: whole, on cells; also called Cyno CD40; CD40 on cynomolgus B cells and platelets
The test is described as follows: ratio of binding EC50 human/cyno; ratio > 1 means increased binding to Cyno compared to Human.
In the case of B1, the “Species cross-react.: Hu/Cyno Binding (EC50 ratios)” value was found to be 1.
Same read-out and setting: to B3 belongs 3; to B4, 2.
